Experimental data from PMC10303109 (Molecules, 2023).

Target: receptor-binding domain (RBD) of the wild-type SARS-CoV-2 spike protein (319-541 aa) (SARS-CoV-2, UniProt P0DTC2)
Assay: cryo-EM structure
Settings: both partners purified

B1: Fab domain of the antibody REGN10987 (Fab, V domains shown)
VH: QVQLVESGGGVVQPGRSLRLSCAASGFTFSNYAMYWVRQAPGKGLEWVAVISYDGSNKYYADSVKGRFTISRDNSKNTLYLQMNSLRTEDTAVYYCASGSDYGDYLLVYWGQGTLVTVSS
VL: QSALTQPASVSGSPGQSITISCTGTSSDVGGYNYVSWYQQHPGKAPKLMIYDVSKRPSGVSNRFSGSKSGNTASLTISGLQSEDEADYYCNSLTSISTWVFGGGTKLTVL
B1: binds.
